{"source": "the RNAGym collection of RNA variant scans (doi:10.1093/nar/gkz1192)", "parents": {"B1": {"name": "CPEB3 Ribozyme (parent)", "chain": "UAACAGGGGGCCACAGCAGAAGCGUUCACGUCGCAGCCCCUGUCAGAUUCUGGUGAAUCUGCGAAUUCUGCUGUAUAUCUC"}}}
{"variants_of": "B1", "experiment": "self-cleavage, relative activity (ratio to wild type); higher = more cleavage; in vitro, sequencing", "method_in_brief": "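Libraries of CPEB3 self-cleaving ribozyme mutants came from rounds of error-prone PCR and carried barcodes, which DNA sequencing matched to variants. In vitro transcription used T7 RNA polymerase at 37°C for 5 hours, with a further 15 min in DNase I before EDTA stopped the reaction; the ribozymes cleaved during both steps. The RNA was reverse transcribed with template switching and sequenced on Illumina. Relative activity is the cleaved/total read fraction of a variant divided by that of the unmutated ribozyme, averaged over three batches with at least 5 reads.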"}
{"variant": "UAGCAGGGGGCCACAGCAGAAGCGUUCACGUCGCAGCCCCUGUCAGAUUCUGGUGAAUCUGCGAAUUCUGCUGUAUAACUC", "note": "[A3G U78A]", "self-cleavage": 1.17}
{"variant": "UAGCAGGGGGCCACAGCAGAAGCGUUCACGUCGCAGCCCCUGUCAGAUUCUGGUGAAUCUGCGAAUUCUGCUGUAUACCUC", "note": "[A3G U78C]", "self-cleavage": 0.99}
{"variant": "UAUCAGGGGGCCACAGCAGAAGCGUUCACGUCGCGGCCCCUGUCAGAUUCUGGUGAAUCUGCGAAUUCUGCUGUAUAUCUC", "note": "[A3U A35G]", "self-cleavage": 1.28}
{"variant": "UAUCAGGGGGCCACAGCAGAAGCGUUCACGUCGCUGCCCCUGUCAGAUUCUGGUGAAUCUGCGAAUUCUGCUGUAUAUCUC", "note": "[A3U A35U]", "self-cleavage": 0.77}
{"variant": "UAGCAGGGGGCCACAGCAGAAGCGUUCACGUCGCAGCCCCUGUCAGAUUCUGGUGAAUCUGCGAAUUCUGCUGAAUAUCUC", "note": "[A3G U74A]", "self-cleavage": 1.22}
{"variant": "UAGCAGGGGGCCACAGCAGAAGCGUUCACGUCGCAGCCCCUGUCAGAUUCUGGUGAAUCUGCGAAUUCUGCUGCAUAUCUC", "note": "[A3G U74C]", "self-cleavage": 1.16}
{"variant": "UAGCAGGGGGCCACAGCAGAAGCGUUCACGUCGCAGCCCCUGUCAGAUUCUGGUGAAUCUGCGAAUUCUGCUGGAUAUCUC", "note": "[A3G U74G]", "self-cleavage": 1.24}
{"variant": "UAUCAGGGGGCCACAGCAGAAGCGUUCACGUCGCAGCCCCUGUCAGAUUCUGGUGGAUCUGCGAAUUCUGCUGUAUAUCUC", "note": "[A3U A56G]", "self-cleavage": 0.63}
{"variant": "UAGCAGGGGGCCACAGCAGAAGCGUUCACGUCGCAGCCCCUGUCAGAUUCUGGUGAAUCUGCGAAUGCUGCUGUAUAUCUC", "note": "[A3G U67G]", "self-cleavage": 0.37}
{"variant": "UAUCAGGGGGCCACAGCAGAAGCGUUCACGUCGCAGCCCAUGUCAGAUUCUGGUGAAUCUGCGAAUUCUGCUGUAUAUCUC", "note": "[A3U C40A]", "self-cleavage": 0.54}
{"variant": "UAUCAGGGGGCCACAGCAGAAGCGUUCACGUCGCAGCCCCUGUCAGAUUCUGGUGAAUAUGCGAAUUCUGCUGUAUAUCUC", "note": "[A3U C59A]", "self-cleavage": 0.51}
{"variant": "UAUCAGGGGGCAACAGCAGAAGCGUUCACGUCGCAGCCCCUGUCAGAUUCUGGUGAAUCUGCGAAUUCUGCUGUAUAUCUC", "note": "[A3U C12A]", "self-cleavage": 1.14}
{"variant": "UAUCAGGGGGCCACGGCAGAAGCGUUCACGUCGCAGCCCCUGUCAGAUUCUGGUGAAUCUGCGAAUUCUGCUGUAUAUCUC", "note": "[A3U A15G]", "self-cleavage": 0.83}
{"variant": "UAUCAGGGGGCCACUGCAGAAGCGUUCACGUCGCAGCCCCUGUCAGAUUCUGGUGAAUCUGCGAAUUCUGCUGUAUAUCUC", "note": "[A3U A15U]", "self-cleavage": 1.06}
{"variant": "UAUCAGGGGGCCACAGCAGAAGCGUUUACGUCGCAGCCCCUGUCAGAUUCUGGUGAAUCUGCGAAUUCUGCUGUAUAUCUC", "note": "[A3U C27U]", "self-cleavage": 0.6}
{"variant": "UAUCAGGGGGCCACAGCAGAAGCGUUCACGUCGCAGCCCCUGUCAGAUUCUGGUGAUUCUGCGAAUUCUGCUGUAUAUCUC", "note": "[A3U A57U]", "self-cleavage": 0.85}
{"variant": "UAUCAGGGGGCCACAGCAGAAGCGUUCACGUCGCAGCCCCUGUCAGAUUCUGGUGAGUCUGCGAAUUCUGCUGUAUAUCUC", "note": "[A3U A57G]", "self-cleavage": 1.04}
{"variant": "UAUCAGGGGGCCACAGAAGAAGCGUUCACGUCGCAGCCCCUGUCAGAUUCUGGUGAAUCUGCGAAUUCUGCUGUAUAUCUC", "note": "[A3U C17A]", "self-cleavage": 0.26}
{"variant": "UAUCAGGGGGCCACAGGAGAAGCGUUCACGUCGCAGCCCCUGUCAGAUUCUGGUGAAUCUGCGAAUUCUGCUGUAUAUCUC", "note": "[A3U C17G]", "self-cleavage": 0.53}
{"variant": "UAUCAGGGGGCCACAGUAGAAGCGUUCACGUCGCAGCCCCUGUCAGAUUCUGGUGAAUCUGCGAAUUCUGCUGUAUAUCUC", "note": "[A3U C17U]", "self-cleavage": 0.5}
{"variant": "UAUCAGGGGGCCACAGCAGAAGCGUUCCCGUCGCAGCCCCUGUCAGAUUCUGGUGAAUCUGCGAAUUCUGCUGUAUAUCUC", "note": "[A3U A28C]", "self-cleavage": 0.91}
{"variant": "UAUCAGGGGGCCACAGCAGAAGCGUUCUCGUCGCAGCCCCUGUCAGAUUCUGGUGAAUCUGCGAAUUCUGCUGUAUAUCUC", "note": "[A3U A28U]", "self-cleavage": 1.13}
{"variant": "UAUCAGGGGGCCACAGCAGAAGCGUUCGCGUCGCAGCCCCUGUCAGAUUCUGGUGAAUCUGCGAAUUCUGCUGUAUAUCUC", "note": "[A3U A28G]", "self-cleavage": 0.88}
{"variant": "UAGCAGGGGGCCACAGCAGAAGCGUUCACGUCGCAGCCCCUGUCAGAUUCUGGUGAAUCUGCGAAUUCAGCUGUAUAUCUC", "note": "[A3G U69A]", "self-cleavage": 0.69}
{"variant": "UAGCAGGGGGCCACAGCAGAAGCGUUCACGUCGCAGCCCCUGUCAGAUUCUGGUGAAUCUGCGAAUUCCGCUGUAUAUCUC", "note": "[A3G U69C]", "self-cleavage": 0.6}
{"variant": "UAGCAGGGGGCCACAGCAGAAGCGUUCACGUCGCAGCCCCUGUCAGAUUCUGGUGAAUCUGCGAAUUCGGCUGUAUAUCUC", "note": "[A3G U69G]", "self-cleavage": 0.76}
{"variant": "UAUCAGGGGGCCACAGCAGAAGCGUUCACGUCGCAGCCCCUGUCAGAUUCUGGUGAAUCUGCGAAUUCUGCUGUGUAUCUC", "note": "[A3U A75G]", "self-cleavage": 1.06}
{"variant": "UAUCAGGGGGCCACAGCAGAAGCGUUCACGUCGCAGCCCCUGUCAGAUUCUGGUGAAUCUGCGGAUUCUGCUGUAUAUCUC", "note": "[A3U A64G]", "self-cleavage": 1.06}
{"variant": "UAUCAGGGGGCCACAGCAGAAGCGUUCACGUCGCAGCCCCUGUCAGAUUCUGGUGAAUCUGCGUAUUCUGCUGUAUAUCUC", "note": "[A3U A64U]", "self-cleavage": 0.69}
{"variant": "UAUCAGGGGGCCACAGCAGAAGCGUUCACGUGGCAGCCCCUGUCAGAUUCUGGUGAAUCUGCGAAUUCUGCUGUAUAUCUC", "note": "[A3U C32G]", "self-cleavage": 0.47}
{"variant": "UAUCAGGGGGCCACAGCAGAGGCGUUCACGUCGCAGCCCCUGUCAGAUUCUGGUGAAUCUGCGAAUUCUGCUGUAUAUCUC", "note": "[A3U A21G]", "self-cleavage": 0.79}
{"variant": "UAUCAGGGGGCCACAGCAGAUGCGUUCACGUCGCAGCCCCUGUCAGAUUCUGGUGAAUCUGCGAAUUCUGCUGUAUAUCUC", "note": "[A3U A21U]", "self-cleavage": 0.56}
{"variant": "UAUCAGGGGGCCACAGCAGAAGCGUUCACGUCGCAGCCCCUGUCAGAUUCUGGUGAAUCUGCGAAUUCUGCUGUAUUUCUC", "note": "[A3U A77U]", "self-cleavage": 1.25}
{"variant": "UAUCAGGGGGCCACAGCAGAAGCGUUCACGUCGCAGCCCCUGUCAGAUUCUGGUGAAUCUGCGAAUUCUGCUGUAUGUCUC", "note": "[A3U A77G]", "self-cleavage": 1.04}
